Read-outs that look alike come from different tables or passages of the source. Where no end group is shown, it is not given here. [ ]: non-standard residue; d: D form. fluorescein = fluorescein label on the N-terminus; pT = C[C@@H](OP(=O)(O)O)[C@H](N)C(=O)O; pS = N[C@@H](COP(=O)(O)O)C(=O)O; FAM = fluorescein
T1: 14-3-3σ, full-length, recombinant (human, UniProt P31947 1-248)
T1 sequence (looked up): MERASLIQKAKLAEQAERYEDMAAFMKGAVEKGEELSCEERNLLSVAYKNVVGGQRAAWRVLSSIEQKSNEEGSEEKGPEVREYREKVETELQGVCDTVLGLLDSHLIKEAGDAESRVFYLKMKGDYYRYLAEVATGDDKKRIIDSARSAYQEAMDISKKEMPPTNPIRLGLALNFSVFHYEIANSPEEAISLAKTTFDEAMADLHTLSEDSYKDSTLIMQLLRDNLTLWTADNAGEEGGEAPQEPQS


Key:
[1] = target: T1, 14-3-3σ, full-length, recombinant; experiment: fluorescence polarisation
[2] = target: T1, 14-3-3σ, full-length, recombinant; experiment: fluorescence polarisation; remark: listed apart in the source
[3] = target: T1, 14-3-3σ, full-length, recombinant; experiment: fluorescence polarisation; remark: listed apart in the source
[4] = target: T1, 14-3-3σ, full-length, recombinant; experiment: fluorescence polarisation; remark: listed apart in the source
[5] = target: T1, 14-3-3σ, full-length, recombinant; experiment: ITC
[6] = target: T1, 14-3-3σ, full-length, recombinant; experiment: ITC; remark: listed apart in the source
[7] = target: fluorescein-labeled Nup160-ctp (3) (human); experiment: fluorescence polarisation
[8] = target: fluorescein-labeled TNFRSF19-ctp (4) (human); experiment: fluorescence polarisation
[9] = target: fluorescein-labeled Nup160-ctp (3) (human); experiment: fluorescence polarisation; remark: listed apart in the source
[10] = target: fluorescein-labeled TNFRSF19-ctp (4) (human); experiment: fluorescence polarisation; remark: listed apart in the source

Row | Binder | Kd [1] [µM] | Kd [2] [µM] | further results
1 | {FAM}-KYYITGEAEGFPA[pT]S (peptide, UniProt P03372 581-595, looked up) [N-FAM-2 variant with C-terminal residue S] | 79.8 | 3.54 | –
2 | fluorescein-KRSV[pS]L-OH [GPR15-ctp, fluorescein-labeled hexaphosphopeptide KRSVpSL-COOH] | – | – | Kd [3]: 7.36 µM; Kd [4]: 1.1 µM
3 | fluorescein-ALRRQ[pT]-OH [p27Kip1-ctp, fluorescein-labeled hexaphosphopeptide ALRRQpT-COOH] | – | – | Kd [3]: 82.2 µM; Kd [4]: 39.9 µM
4 | {FAM}-KYYITGEAEGFPA[pT]T (peptide, UniProt P03372 581-595, looked up) [N-FAM-2 variant with C-terminal residue T] | 50 | 1.32 | –
5 | fluorescein-YSGH[pS]L-OH [GpIBα-ctp, fluorescein-labeled hexaphosphopeptide YSGHpSL-COOH] | – | – | Kd [3]: 22.5 µM; Kd [4]: 1.69 µM
6 | {FAM}-KYYITGEAEGFPA[pT]I (peptide, UniProt P03372 581-595, looked up) [N-FAM-2 variant with C-terminal residue I] | 3.03 | 0.06 | –
7 | {FAM}-KYYITGEAEGFPA[pT]N (peptide, UniProt P03372 581-595, looked up) [N-FAM-2 variant with C-terminal residue N] | 59.5 | 32.4 | –
8 | KYYITGEAEGFPA[pT]V (peptide, UniProt P03372 581-595, looked up) [ERα C-terminal phospholigand (ERα-ctp, 2)] | – | – | Kd [5]: 0.75 µM; Kd [6]: 0.02 µM
9 | 14-3-3σ, full-length, recombinant (natural protein) MERASLIQKAKLAEQAERYEDMAAFMKGAVEKGEELSCEERNLLSVAYKNVVGGQRAAWRVLSSIEQKSNEEGSEEKGPEVREYREKVETELQGVCDTVLGLLDSHLIKEAGDAESRVFYLKMKGDYYRYLAEVATGDDKKRIIDSARSAYQEAMDISKKEMPPTNPIRLGLALNFSVFHYEIANSPEEAISLAKTTFDEAMADLHTLSEDSYKDSTLIMQLLRDNLTLWTADNAGEEGGEAPQEPQS | – | – | Kd [7]: 5.34 µM; Kd [8]: 538 µM; Kd [9]: 0.25 µM; Kd [10]: 38 µM
10 | {FAM}-KYYITGEAEGFPA[pT]D (peptide, UniProt P03372 581-595, looked up) [N-FAM-2 variant with C-terminal residue D] | 173 | 48.2 | –
11 | fluorescein-RKKR[pS]V-OH [Task3-ctp, fluorescein-labeled hexaphosphopeptide RKKRpSV-COOH] | – | – | Kd [3]: 3.15 µM; Kd [4]: 0.1 µM
12 | {FAM}-KYYITGEAEGFPA[pT]L (peptide, UniProt P03372 581-595, looked up) [N-FAM-2 variant with C-terminal residue L] | 11 | 0.17 | –
13 | {FAM}-KYYITGEAEGFPA[pT]F (peptide, UniProt P03372 581-595, looked up) [N-FAM-2 variant with C-terminal residue F] | 10.5 | 4.03 | –
14 | fluorescein-ARSW[pT]F-OH [IRL9-ctp, fluorescein-labeled hexaphosphopeptide ARSWpTF-COOH] | – | – | Kd [3]: 3.16 µM; Kd [4]: 1.54 µM
15 | {FAM}-KYYITGEAEGFPA[pT]G (peptide, UniProt P03372 581-595, looked up) [N-FAM-2 variant with C-terminal residue G] | 144 | 36.5 | –
16 | {FAM}-KYYITGEAEGFPA[pT]V (peptide, UniProt P03372 581-595, looked up) [fluorescein-labeled N-FAM-ERα-ctp (N-FAM-2)] | 3.61 | 0.05 | –
17 | {FAM}-KYYITGEAEGFPA[pT]A (peptide, UniProt P03372 581-595, looked up) [N-FAM-2 variant with C-terminal residue A] | 19.9 | 0.7 | –

Reference: PMC7169973 (ACS chemical biology, 2020)
